Laboratory results published in patent USRE47150 (Bayer, dated 2018).
Changes are numbered by the printed parent chain. Numbers in names are those of the source.

T1: human tissue factor pathway inhibitor (TFPI) (human, UniProt P10646 29-304, limits assumed)
T1 construct: bought; also called hTFPI; human TFPI
T1 sequence (looked up): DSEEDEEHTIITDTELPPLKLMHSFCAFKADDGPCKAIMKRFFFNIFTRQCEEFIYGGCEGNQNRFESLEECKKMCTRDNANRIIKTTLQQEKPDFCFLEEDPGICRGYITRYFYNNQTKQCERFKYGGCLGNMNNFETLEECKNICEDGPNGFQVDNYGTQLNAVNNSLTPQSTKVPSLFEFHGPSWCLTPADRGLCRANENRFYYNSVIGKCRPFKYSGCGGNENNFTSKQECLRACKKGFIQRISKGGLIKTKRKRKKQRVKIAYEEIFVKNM

T2: mouse tissue factor pathway inhibitor (TFPI) (mouse, UniProt O54819 29-289, limits assumed)
T2 construct: bought; also called mTFPI; murine TFPI
T2 sequence (looked up): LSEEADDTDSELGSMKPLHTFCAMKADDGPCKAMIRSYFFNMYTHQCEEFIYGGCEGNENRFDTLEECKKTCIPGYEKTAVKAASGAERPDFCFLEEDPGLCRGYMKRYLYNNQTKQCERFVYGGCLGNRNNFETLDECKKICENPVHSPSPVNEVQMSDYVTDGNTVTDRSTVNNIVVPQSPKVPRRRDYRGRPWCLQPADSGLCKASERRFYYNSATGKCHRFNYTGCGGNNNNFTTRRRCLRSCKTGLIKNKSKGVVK

B1: 2A8 HC S31V+S35D+S55R/LC Y48F+N51V+D91L+V96W (Fab, V domains shown)
VH: QVQLVESGGGLVQPGGSLRLSCAASGFTFRVYGMDWVRQAPGKGLEWVSSIRGSRSSTYYADSVKGRFTISRDNSKNTLYLQMNSLRAEDTAVYYCARKYRYWFDYWGQGTLVTVSS
VL: DIELTQPPSVSVAPGQTARISCSGDNLRNYYAHWYQQKPGQAPVVVIFYDVNRPSGIPERFSGSNSGNTATLTISGTQAEDEADYYCQSWLDGVPWFGGGTKLTVLG
B2: 2A8 HC S31V+S35D/LC Y48F+N51V (Fab, V domains shown)
VH: B1 VH with R55S
VL: B1 VL with L91D, W96V
B3: 2A8 HC S31V+S35L+I51D+S54F+K99V/LC N51V+D91K (Fab, V domains shown)
VH: B1 VH with D35L, I51D, S54F, R55S, K99V
VL: B1 VL with F48Y, L91K, W96V
B4: 2A8 HC S31V+S35L+I51E+S54F+K99V/LC N51V+D91K (Fab, V domains shown)
VH: B1 VH with D35L, I51E, S54F, R55S, K99V
VL: B1 VL with F48Y, L91K, W96V
B5: 2A8 HC S31V+S50A+I51D+S55R+K99V/LC Y48F+D91L+V96W (Fab, V domains shown)
VH: B1 VH with D35S, S50A, I51D, K99V
VL: B1 VL with V51N
B6: 2A8 HC S31V+S54F+K99L/LC N51V (Fab, V domains shown)
VH: B1 VH with D35S, S54F, R55S, K99L
VL: B1 VL with F48Y, L91D, W96V
B7: 2A8 HC S35D+I51D+K99L/LC Y48F+D91W (Fab, V domains shown)
VH: B1 VH with V31S, I51D, R55S, K99L
VL: B1 VL with V51N, L91W, W96V
B8: 2A8 HC S35D+I51D+S55R+K99V/LC Y48F+N51V (Fab, V domains shown)
VH: B1 VH with V31S, I51D, K99V
VL: B1 VL with L91D, W96V
B9: 2A8 HC S35D+I51E+S55R+K99L/LC Y48F+N51V+D91L+V96W (Fab, V domains shown)
VH: B1 VH with V31S, I51E, K99L
VL: B1 VL
B10: 2A8 HC S35D+K99L/LC D91L+V96W (Fab, V domains shown)
VH: B1 VH with V31S, R55S, K99L
VL: B1 VL with F48Y, V51N
B11: 2A8 HC S35D+K99L/LC Y48F+D91L+D92S+V96W (Fab, V domains shown)
VH: B1 VH with V31S, R55S, K99L
VL: B1 VL with V51N, D92S
B12: 2A8 HC S35D+K99L/LC Y48F+D91L+G93S+V96W (Fab, V domains shown)
VH: B1 VH with V31S, R55S, K99L
VL: B1 VL with V51N, G93S
B13: 2A8 HC S35D+K99L/LC Y48F+D91L+P95V+V96W (Fab, V domains shown)
VH: B1 VH with V31S, R55S, K99L
VL: B1 VL with V51N, P95V
B14: 2A8 HC S35D+K99L/LC Y48F+D91L+V94T+V96W (Fab, V domains shown)
VH: B1 VH with V31S, R55S, K99L
VL: B1 VL with V51N, V94T
B15: 2A8 HC S35D+K99L/LC Y48F+N51S+D91L+V96W (Fab, V domains shown)
VH: B1 VH with V31S, R55S, K99L
VL: B1 VL with V51S
B16: 2A8 HC S35D+K99L/LC Y48F+S89A+D91L+V96W (Fab, V domains shown)
VH: B1 VH with V31S, R55S, K99L
VL: B1 VL with V51N, S89A
B17: 2A8 HC S35D+K99L/LC unchanged (Fab, V domains shown)
VH: B1 VH with V31S, R55S, K99L
VL: B1 VL with F48Y, V51N, L91D, W96V
B18: 2A8 HC S35D+R52S+K99L/LC Y48F+D91L+V96W (Fab, V domains shown)
VH: B1 VH with V31S, R52S, R55S, K99L
VL: B1 VL with V51N
B19: 2A8 HC S35D+R52S+S55R+K99L/LC Y48F+N51V+D91W (Fab, V domains shown)
VH: B1 VH with V31S, R52S, K99L
VL: B1 VL with L91W, W96V
B20: 2A8 HC S35D+S50A+K99L/LC Y48F+D91L+V96W (Fab, V domains shown)
VH: B1 VH with V31S, S50A, R55S, K99L
VL: B1 VL with V51N
B21: 2A8 HC S35D+S50A+S55R+K99L/LC Y48F+N51V+D91W (Fab, V domains shown)
VH: B1 VH with V31S, S50A, K99L
VL: B1 VL with L91W, W96V
B22: 2A8 HC S35D+S54F+S55R+K99L/LC D91L+V96W (Fab, V domains shown)
VH: B1 VH with V31S, S54F, K99L
VL: B1 VL with F48Y, V51N
B23: 2A8 HC S35D+S55G+K99L/LC Y48F+D91L+V96W (Fab, V domains shown)
VH: B1 VH with V31S, R55G, K99L
VL: B1 VL with V51N
B24: 2A8 HC S35D+S55R+K99L/LC A13S+Y48F+N51V+D91W (Fab, V domains shown)
VH: B1 VH with V31S, K99L
VL: B1 VL with A13S, L91W, W96V
B25: 2A8 HC S35D+S55R+K99L/LC D1S+Y48F+N51V+D91W (Fab, V domains shown)
VH: B1 VH with V31S, K99L
VL: B1 VL with D1S, L91W, W96V
B26: 2A8 HC S35D+S55R+K99L/LC H33Y+Y48F+N51V+D91W (Fab, V domains shown)
VH: B1 VH with V31S, K99L
VL: B1 VL with H33Y, L91W, W96V
B27: 2A8 HC S35D+S55R+K99L/LC I2Y+Y48F+N51V+D91W (Fab, V domains shown)
VH: B1 VH with V31S, K99L
VL: B1 VL with I2Y, L91W, W96V
B28: 2A8 HC S35D+S55R+K99L/LC N26A+Y48F+N51V+D91W (Fab, V domains shown)
VH: B1 VH with V31S, K99L
VL: B1 VL with N26A, L91W, W96V
B29: 2A8 HC S35D+S55R+K99L/LC N29K+Y48F+N51V+D91W (Fab, V domains shown)
VH: B1 VH with V31S, K99L
VL: B1 VL with N29K, L91W, W96V
B30: 2A8 HC S35D+S55R+K99L/LC R28P+Y48F+N51V+D91W (Fab, V domains shown)
VH: B1 VH with V31S, K99L
VL: B1 VL with R28P, L91W, W96V
B31: 2A8 HC S35D+S55R+K99L/LC S21T+Y48F+N51V+D91W (Fab, V domains shown)
VH: B1 VH with V31S, K99L
VL: B1 VL with S21T, L91W, W96V
B32: 2A8 HC S35D+S55R+K99L/LC Y48F+N51V+D91W+D92S (Fab, V domains shown)
VH: B1 VH with V31S, K99L
VL: B1 VL with L91W, D92S, W96V
B33: 2A8 HC S35D+S55R+K99L/LC Y48F+N51V+D91W+G93S (Fab, V domains shown)
VH: B1 VH with V31S, K99L
VL: B1 VL with L91W, G93S, W96V
B34: 2A8 HC S35D+S55R+K99L/LC Y48F+N51V+D91W+P95V (Fab, V domains shown)
VH: B1 VH with V31S, K99L
VL: B1 VL with L91W, P95V, W96V
B35: 2A8 HC S35D+S55R+K99L/LC Y48F+N51V+D91W+V94T (Fab, V domains shown)
VH: B1 VH with V31S, K99L
VL: B1 VL with L91W, V94T, W96V
B36: 2A8 HC S35D+S55R+K99L/LC Y48F+N51V+E80M+D91W (Fab, V domains shown)
VH: B1 VH with V31S, K99L
VL: B1 VL with E80M, L91W, W96V
B37: 2A8 HC S35D+S55R+K99L/LC Y48F+N51V+S89A+D91W (Fab, V domains shown)
VH: B1 VH with V31S, K99L
VL: B1 VL with S89A, L91W, W96V
B38: 2A8 HC S35D+S55R+K99L/LC Y48F+N51V+S89A+D91W+D92S+G93S+V94T+P95A (Fab, V domains shown)
VH: B1 VH with V31S, K99L
VL: B1 VL with S89A, L91W, D92S, G93S, V94T, P95A, W96V

Columns and labels:
[1] = target: T1, human tissue factor pathway inhibitor …; assay: competitive ELISA
[2] = target: T2, mouse tissue factor pathway inhibitor …; assay: competitive ELISA

Binder | variant/HC_K99L [1] [ratio] | variant/HC_K99L [2] [ratio]
B1 | 8.7 | 8.2
B2 | 7.5 | 7.2
B3 | 8.6 | 8.2
B4 | 4.9 | 3.9
B5 | 16.6 | 9.3
B6 | 16.3 | 15.7
B7 | 0.8 | 0.2
B8 | 8 | 2.7
B9 | 10.4 | 8
B10 | 7.1 | 5.4
B11 | 20.7 | 20.5
B12 | 14.2 | 15.6
B13 | 10.2 | 13.6
B14 | 18.6 | 19.3
B15 | 19.9 | 20.3
B16 | 4.4 | 6.1
B17 | 3.9 | 4.5
B18 | 3.9 | 3
B19 | 10.1 | 7.9

Binder | variant/HC_K99L [1] [ratio] | variant/HC_K99L [2] [ratio]
B20 | 4 | 4.6
B21 | 10.9 | 12.6
B22 | 14.9 | 12.1
B23 | 18.1 | 18.2
B24 | 20.1 | 19.9
B25 | 21.9 | 22
B26 | 14 | 11.2
B27 | 18.7 | 19
B28 | 4.1 | 4.1
B29 | 20 | 18.9
B30 | 22 | 23.2
B31 | 19.5 | 18.8
B32 | 23.9 | 22.8
B33 | 17 | 16.5
B34 | 15.7 | 13.7
B35 | 22.8 | 19.9
B36 | 23.1 | 21.2
B37 | 18.6 | 18.2
B38 | 10.9 | 9
